Laboratory results taken from US7850981B2, “Immuno-adjuvant PDT treatment of metastatic tumors” (QLT, Inc., priority 1999, dated 2010).
Where two headings read alike, the source gives them in different places.

Assays:
DC [1] = conditions: after multiple injections, cited from earlier work
DC [2] = experiment: Preliminary experiments: daily injection of FLT3 L into mice, numbers of DC; assay type: in vivo; conditions: daily injection of 10 μg into mice for 10 days

B1: FLT3-ligand: cytokine factor promoting growth of hematopoietic progenitors; increases dendritic cell numbers (protein, UniProt P49771 27-235, looked up)
Fms-related tyrosine kinase 3 …: TQDCSFQHSPISSDFAVKIRELSDYLLQDYPVTVASNLQDEELCGGLWRLVLAQRWMERLKTVAGSKMQGLLERVNTEIHFVTKCAFQPPPSCLRFVQTNISRLLQETSEQLVALKPWITRQNFSRCLELQCQPDSSTLPPPWSPRPLEATAPTAPQPPLLLLLLLPVGLLLLAAAWCLHWQRTRRRTPRPGEQVPPVPSPQDLLLVEH
For B1, the “increase in DC numbers” value (DC [1]; blood) is given as about 6 fold, the “increase in DC numbers” value (DC [1]; peripheral lymph nodes) is given as about 4 fold and the “increase in DC numbers” value (DC [1]; spleen) is given as “approximately 17 fold”. The “numbers of DC” value (DC [2]) was “dramatically increase”.
